Our source for the AmyQ secretion efficiency values is the supplement of paper PMC9942255.

For the series, the system named is Bacillus subtilis DB104 (SP-AmyQ fusion secretion). Put plainly: AmyQ secretion efficiency, weighted average sort bin (1 = best secretion, 10 = worst) (bin number (weighted average, 1-10)); higher = lower secretion efficiency. The procedure, abridged:
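The secretion score gives the average bin number weighted by read frequency and normalised to beads per bin, with low-abundance sequences excluded. Bins were 10 equally populated green/red fluorescence ratio fractions of occupied ~65 nL alginate beads, sorted by large-particle flow cytometry. The beads held fluorescein-starch and about 0.3 cells each of an amyE-integrated B. subtilis DB104 library fusing designed signal peptides to mature AmyQ, and they were grown about 13 h at room temperature and stained with nile red before sorting and Illumina sequencing.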

As to MLKKIALTLCPAIVGSLLFFTAPESAHVS, the AmyQ secretion efficiency came to 5.94.

MLKKIALTLCPAIVGSLLFFTAPFSAHVS: the AmyQ secretion efficiency turned out to be 5.46.

MLKKIALTLCPAIVGSLLFFTAPHSAHVS gave an AmyQ secretion efficiency of 5.59.

MLKKIALTLCPAIVGSLLFFTAPKSAHVS showed an AmyQ secretion efficiency of 5.03.

MLKKIALTLCPAIVGSLLFFTAPLSAHVS gave an AmyQ secretion efficiency of 3.94.

Regarding MLKKIALTLCPAIVGSLLFFTAPNSAHVS, the AmyQ secretion efficiency was found to be 6.42.

Turning to MLKKIALTLCPAIVGSLLFFTAPPFSASAHVS, the AmyQ secretion efficiency is 4.02.

MLKKIALTLCPAIVGSLLFFTAPPSAHVS showed an AmyQ secretion efficiency of 6.86.

On to MLKKIALTLCPAIVGSLLFFTAPQSAHVS, for which the AmyQ secretion efficiency was determined as 5.63.

As to MLKKIALTLCPAIVGSLLFFTAPRSAHVS, the AmyQ secretion efficiency is 5.22.

Take MLKKIALTLCPAIVGSLLFFTAPSSAHVS: the AmyQ secretion efficiency was found to be 3.86.

MLKKIALTLCPAIVGSLLFFTAPTSAHVS registered an AmyQ secretion efficiency of 3.63.

For MLKKIALTLCPAIVGSLLFFTAPWSAHVS, the AmyQ secretion efficiency is 4.74.

Sequence MLKKIALTLCPAIVGSLLFFTDEDASAHVS came in with an AmyQ secretion efficiency of 4.47.

MLKKIALTLCPAIVGSLLFFTDEDDEEASAHVS registered an AmyQ secretion efficiency of 5.14.

Regarding MLKKIALTLCPAIVGSLLFFTGPASAHVS, the AmyQ secretion efficiency was 2.54.

As to MLKKIALTLCPAIVGSLLFFTKPQASAHVS, the AmyQ secretion efficiency is 3.85.

The sequence MLKKIALTLCPAIVGSLLFFTKRKKRKASAHVS gave an AmyQ secretion efficiency of 7.45.

MLKKIALTLCPAIVGSLLFFTRKKASAHVS came in with an AmyQ secretion efficiency of 7.46.

In the case of MLKKIALTLCPAIVGSLLFFTVAPASAHVS, the AmyQ secretion efficiency stood at 3.73.

In turn, MLKKIALTLCPAIVGSLLFFTVILITAPASAHVS displayed an AmyQ secretion efficiency of 3.87.

As for MLKKIARRKCKKRVGSLLFFTAPASAHVS, the AmyQ secretion efficiency was 7.33.

MLKKIGYQGCPRSYGSLLFFTAPASAHVS: the AmyQ secretion efficiency came to 7.75.

For the sequence MLKKIMNLNMMMALTLCPAIVGSLLFFTAPASAHVS, the AmyQ secretion efficiency stood at 2.77.

As for MLKKKKTQYQILVGSTLGAFSFSSDASAKHV, the AmyQ secretion efficiency amounted to 5.99.

The sequence MLKKKWMLMVGLLAGCLAAGGFSYNAFATEN showed an AmyQ secretion efficiency of 4.46.

Sequence MLKKKWMTGGTKRCLAAGGFSYNAFATEN registered an AmyQ secretion efficiency of 7.54.

Sequence MLKKKWMTRGLAGCLAAGGFSYNAFATEN showed an AmyQ secretion efficiency of 6.77.

Regarding MLKKKWMVFLLAICLAAFGFSYNAFATEN, the AmyQ secretion efficiency is 3.29.

As to MLKKKWMVGLLAGCLAAGDDEYNAFATEN, the AmyQ secretion efficiency came to 4.98.

With MLKKKWMVGLLAGCLAAGEDDEEDAFATEN, the AmyQ secretion efficiency is 5.44.

As to MLKKKWMVGLLAGCLAAGEEPYNAFATEN, the AmyQ secretion efficiency was 4.04.

Take MLKKKWMVGLLAGCLAAGFFGYNAFATEN: the AmyQ secretion efficiency stood at 6.85.

For MLKKKWMVGLLAGCLAAGGAFATEN, the AmyQ secretion efficiency came out at 6.32.

MLKKKWMVGLLAGCLAAGGFSYNAFADEE gave an AmyQ secretion efficiency of 6.94.

With MLKKKWMVGLLAGCLAAGGFSYNAFAKRK, the AmyQ secretion efficiency was found to be 5.47.

On to MLKKKWMVGLLAGCLAAGGFSYNAFATEE, for which the AmyQ secretion efficiency is 3.49.

MLKKKWMVGLLAGCLAAGGFSYNAFATKK: the AmyQ secretion efficiency was found to be 4.27.

In the case of MLKKKWMVGLLAGCLAAGGFSYNAFATPR, the AmyQ secretion efficiency turned out to be 3.48.

MLKKKWMVGLLAGCLAAGGFSYNAFATSD: the AmyQ secretion efficiency was 4.28.

As to MLKKKWMVGLLAGCLAAGGFSYNAFCTEN, the AmyQ secretion efficiency came out at 6.56.

On to MLKKKWMVGLLAGCLAAGGFSYNAFDTEN, for which the AmyQ secretion efficiency stood at 6.19.

As for MLKKKWMVGLLAGCLAAGGFSYNAFETEN, the AmyQ secretion efficiency was 6.72.

Consider MLKKKWMVGLLAGCLAAGGFSYNAFFTEN, for which the AmyQ secretion efficiency is 6.5.

For MLKKKWMVGLLAGCLAAGGFSYNAFHTEN, the AmyQ secretion efficiency was 6.18.
